Laboratory results: US20040132136A1 (ZymoGenetics, published 2004)

Biological target: the molecule itself
Assay: western blot of BHK conditioned media, reducing against non-reducing conditions
Method: Following selection for stable cell transfectants, media isolated from pools was analyzed by western blot under reducing and non-reducing conditions using a Ztgfβ-9 antibody or an anti-EE epitope tag antibody. […] Under non-reducing conditions, Ztgfβ-9 protein migrated as at 49 kDa species. […] C-terminal EE tagged human Ztgfβ-9 expressed in BHK cells was also anti-EE affinity purified and its N-terminal sequence determined.

B1: Human Ztgfβ-9 protein (ligand)
chain: AGAPRAGRRPARPRGCADRPEELLEQLYGRLAAGVLSAFHHTLQLGPREQARNASCPAGGRPADRRFRPPTNLRSVSPWAYRISYDPARYPRYLPEAYCLCRGCLTGLFGEEDVRFRSAPVYMPTVVLRRTPACAGGRSVYTEAYVTIPVGCTCVPEPEKDADSINSSIDKQGAKLLLGPNDAPAGP
notes: Expressed in BHK cells both with and without a C-terminal Glu-Glu tag; It migrated at 29 kDa reduced and 49 kDa non-reduced, read as a disulfide cross-linked homodimer
binding result: binds
